Sequences and labels used below:
B1: Protein S100-G, residues 1 to 79; numbered along this chain, P02633 (parent)
chain: MSAKKSPEELKGIFEKYAAKEGDPNQLSKEELKLLLQTEFPSLLKGPSTLDELFEELDKNGDGEVSFEEFQVLVKKISQ

Here are results for 34 variants from the Human Domainome abundance scans (Beltran et al. 2025).

± gives the uncertainty stated by the source.

This series covers variants of B1. The experiment in a line: abundance fitness (aPCA) (normalised: wild type 0, dead -1); higher = more abundant; growth selection in yeast, the domain comes from the species named. The settings on record: Bos taurus.
On to MSAKKSPEELKGIFEPYAAKEGDPNQLSKEELKLLLQTEFPSLLKGPSTLDELFEELDKNGDGEVSFEEFQVLVKKISQ, for which the abundance fitness is -0.34 ± 0.076.

Consider MSAKKSPEELKGIFENYAAKEGDPNQLSKEELKLLLQTEFPSLLKGPSTLDELFEELDKNGDGEVSFEEFQVLVKKISQ, for which the abundance fitness was -0.07 ± 0.093.

Consider MSAKKSPEELKGIFEEYAAKEGDPNQLSKEELKLLLQTEFPSLLKGPSTLDELFEELDKNGDGEVSFEEFQVLVKKISQ, for which the abundance fitness is -0.105 ± 0.085.

Consider MSAKKSPEELKGIFEMYAAKEGDPNQLSKEELKLLLQTEFPSLLKGPSTLDELFEELDKNGDGEVSFEEFQVLVKKISQ, for which the abundance fitness was -0.145 ± 0.08.

Consider MSAKKSPEELKGIFEAYAAKEGDPNQLSKEELKLLLQTEFPSLLKGPSTLDELFEELDKNGDGEVSFEEFQVLVKKISQ, for which the abundance fitness was -0.058 ± 0.069.

In the case of MSAKKSPEELKGIFEWYAAKEGDPNQLSKEELKLLLQTEFPSLLKGPSTLDELFEELDKNGDGEVSFEEFQVLVKKISQ, the abundance fitness is -0.176 ± 0.079.

Take MSAKKSPEELKGIFEQYAAKEGDPNQLSKEELKLLLQTEFPSLLKGPSTLDELFEELDKNGDGEVSFEEFQVLVKKISQ: the abundance fitness is -0.122 ± 0.079.

Consider MSAKKSPEELKGIFEDYAAKEGDPNQLSKEELKLLLQTEFPSLLKGPSTLDELFEELDKNGDGEVSFEEFQVLVKKISQ, for which the abundance fitness was -0.18 ± 0.091.

In the case of MSAKKSPEELKGIFETYAAKEGDPNQLSKEELKLLLQTEFPSLLKGPSTLDELFEELDKNGDGEVSFEEFQVLVKKISQ, the abundance fitness is -0.087 ± 0.077.

As for MSAKKSPEELKGIFEVYAAKEGDPNQLSKEELKLLLQTEFPSLLKGPSTLDELFEELDKNGDGEVSFEEFQVLVKKISQ, the abundance fitness was -0.179 ± 0.067.

For the variant MSAKKSPEELKGIFEFYAAKEGDPNQLSKEELKLLLQTEFPSLLKGPSTLDELFEELDKNGDGEVSFEEFQVLVKKISQ, the abundance fitness was -0.087 ± 0.087.

MSAKKSPEELKGIFEHYAAKEGDPNQLSKEELKLLLQTEFPSLLKGPSTLDELFEELDKNGDGEVSFEEFQVLVKKISQ: the abundance fitness is -0.101 ± 0.093.

MSAKKSPEELKGIFEIYAAKEGDPNQLSKEELKLLLQTEFPSLLKGPSTLDELFEELDKNGDGEVSFEEFQVLVKKISQ: the abundance fitness was -0.184 ± 0.091.

As to MSAKKSPEELKGIFESYAAKEGDPNQLSKEELKLLLQTEFPSLLKGPSTLDELFEELDKNGDGEVSFEEFQVLVKKISQ, the abundance fitness was -0.042 ± 0.067.

For the variant MSAKKSPEELKGIFECYAAKEGDPNQLSKEELKLLLQTEFPSLLKGPSTLDELFEELDKNGDGEVSFEEFQVLVKKISQ, the abundance fitness is -0.12 ± 0.086.

For MSAKKSPEELKGIFERYAAKEGDPNQLSKEELKLLLQTEFPSLLKGPSTLDELFEELDKNGDGEVSFEEFQVLVKKISQ, the abundance fitness is -0.082 ± 0.064.

MSAKKSPEELKGIFELYAAKEGDPNQLSKEELKLLLQTEFPSLLKGPSTLDELFEELDKNGDGEVSFEEFQVLVKKISQ: the abundance fitness was -0.031 ± 0.062.

For the variant MSAKKSPEELKGIFEGYAAKEGDPNQLSKEELKLLLQTEFPSLLKGPSTLDELFEELDKNGDGEVSFEEFQVLVKKISQ, the abundance fitness is -0.213 ± 0.07.

For MSAKKSPEELKGIREKYAAKEGDPNQLSKEELKLLLQTEFPSLLKGPSTLDELFEELDKNGDGEVSFEEFQVLVKKISQ, the abundance fitness was -1.37 ± 0.07.

Consider MSAKKSPEELKGITEKYAAKEGDPNQLSKEELKLLLQTEFPSLLKGPSTLDELFEELDKNGDGEVSFEEFQVLVKKISQ, for which the abundance fitness is -1.33 ± 0.075.

Regarding MSAKKSPEELKGISEKYAAKEGDPNQLSKEELKLLLQTEFPSLLKGPSTLDELFEELDKNGDGEVSFEEFQVLVKKISQ, the abundance fitness was -1.22 ± 0.071.

MSAKKSPEELKGIMEKYAAKEGDPNQLSKEELKLLLQTEFPSLLKGPSTLDELFEELDKNGDGEVSFEEFQVLVKKISQ: the abundance fitness was -0.589 ± 0.084.

For the variant MSAKKSPEELKGIGEKYAAKEGDPNQLSKEELKLLLQTEFPSLLKGPSTLDELFEELDKNGDGEVSFEEFQVLVKKISQ, the abundance fitness is -1.53 ± 0.086.

Turning to MSAKKSPEELKGIHEKYAAKEGDPNQLSKEELKLLLQTEFPSLLKGPSTLDELFEELDKNGDGEVSFEEFQVLVKKISQ, the abundance fitness was -0.971 ± 0.093.

For the variant MSAKKSPEELKGIPEKYAAKEGDPNQLSKEELKLLLQTEFPSLLKGPSTLDELFEELDKNGDGEVSFEEFQVLVKKISQ, the abundance fitness is -1.33 ± 0.079.

On to MSAKKSPEELKGIEEKYAAKEGDPNQLSKEELKLLLQTEFPSLLKGPSTLDELFEELDKNGDGEVSFEEFQVLVKKISQ, for which the abundance fitness is -1.32 ± 0.1.

As for MSAKKSPEELKGIQEKYAAKEGDPNQLSKEELKLLLQTEFPSLLKGPSTLDELFEELDKNGDGEVSFEEFQVLVKKISQ, the abundance fitness is -1.29 ± 0.086.

As for MSAKKSPEELKGICEKYAAKEGDPNQLSKEELKLLLQTEFPSLLKGPSTLDELFEELDKNGDGEVSFEEFQVLVKKISQ, the abundance fitness was -1 ± 0.095.

As for MSAKKSPEELKGIKEKYAAKEGDPNQLSKEELKLLLQTEFPSLLKGPSTLDELFEELDKNGDGEVSFEEFQVLVKKISQ, the abundance fitness was -1.18 ± 0.089.

Consider MSAKKSPEELKGIWEKYAAKEGDPNQLSKEELKLLLQTEFPSLLKGPSTLDELFEELDKNGDGEVSFEEFQVLVKKISQ, for which the abundance fitness was -0.088 ± 0.083.

As for MSAKKSPEELKGILEKYAAKEGDPNQLSKEELKLLLQTEFPSLLKGPSTLDELFEELDKNGDGEVSFEEFQVLVKKISQ, the abundance fitness was -0.73 ± 0.062.

Regarding MSAKKSPEELKGINEKYAAKEGDPNQLSKEELKLLLQTEFPSLLKGPSTLDELFEELDKNGDGEVSFEEFQVLVKKISQ, the abundance fitness is -1.2 ± 0.1.

On to MSAKKSPEELKGIDEKYAAKEGDPNQLSKEELKLLLQTEFPSLLKGPSTLDELFEELDKNGDGEVSFEEFQVLVKKISQ, for which the abundance fitness is -1.23 ± 0.099.

For the variant MSAKKSPEELKGIVEKYAAKEGDPNQLSKEELKLLLQTEFPSLLKGPSTLDELFEELDKNGDGEVSFEEFQVLVKKISQ, the abundance fitness is -0.729 ± 0.075.
